± gives the uncertainty stated by the source.
B1: Homeobox protein cut-like 1, residues 548 to 629; numbered along this chain, P39880 (parent)
chain: GEEMDTAEIARQVKEQLIKHNIGQRIFGHYVLGLSQGSVSEILARPKPWNKLTVRGKEPFHKMKQFLSDEQNILALRSIQGR

Variants of: B1
Test: abundance fitness (aPCA) (normalised: wild type 0, dead -1); higher = more abundant; growth selection in yeast, the domain comes from the species named
Details: Homo sapiens

Row | Variant | abundance fitness
1 | K47F | -0.338 ± 0.071
2 | K47D | -0.08 ± 0.044
3 | K47S | -0.126 ± 0.034
4 | K47M | -0.06 ± 0.035
5 | K47E | -0.037 ± 0.032
6 | K47R | -0.072 ± 0.025
7 | K47A | -0.116 ± 0.028
8 | K47G | -0.288 ± 0.025
9 | K47N | -0.339 ± 0.06
10 | K47H | -0.276 ± 0.068
11 | K47L | 0.028 ± 0.028
12 | K47I | -0.086 ± 0.058
13 | K47Q | 0.03 ± 0.035
14 | R45S | 0.041 ± 0.033
15 | R45L | -0.274 ± 0.034
16 | R45E | -0.009 ± 0.031
17 | R45F | 0.008 ± 0.05
18 | R45M | -0.049 ± 0.042
19 | R45D | -0.033 ± 0.047
20 | R45Q | -0.021 ± 0.035
21 | R45H | 0.103 ± 0.056
22 | R45K | -0.006 ± 0.039
23 | R45I | -0.361 ± 0.083
24 | R45P | -0.797 ± 0.086

Row | Variant | abundance fitness
25 | R45N | -0.002 ± 0.058
26 | R45C | -0.001 ± 0.052
27 | R45T | -0.003 ± 0.038
28 | R45Y | -0.085 ± 0.056
29 | R45G | -0.296 ± 0.026
30 | R45A | 0.03 ± 0.029
31 | R45V | -0.228 ± 0.032
32 | R45W | -0.201 ± 0.034
33 | A44S | 0.034 ± 0.032
34 | A44R | -0.106 ± 0.026
35 | A44V | -0.137 ± 0.029
36 | A44P | -0.709 ± 0.06
37 | A44K | -0.094 ± 0.04
38 | A44I | -0.159 ± 0.055
39 | A44M | 0.047 ± 0.037
40 | A44Y | -0.099 ± 0.056
41 | A44L | -0.027 ± 0.031
42 | A44C | -0.134 ± 0.047
43 | A44W | -0.176 ± 0.032
44 | A44D | 0.056 ± 0.041
45 | A44G | -0.038 ± 0.024
46 | A44F | -0.082 ± 0.052
47 | A44Q | 0.053 ± 0.038
48 | A44N | 0.073 ± 0.073

Row | Variant | abundance fitness
49 | A44E | 0.08 ± 0.03
50 | A44T | 0.057 ± 0.035
51 | I42N | -0.633 ± 0.12
52 | I42Y | -0.351 ± 0.085
53 | I42W | -0.513 ± 0.038
54 | I42A | -0.36 ± 0.034
55 | I42V | -0.104 ± 0.028
56 | I42T | -0.375 ± 0.05
57 | I42D | -0.723 ± 0.082
58 | I42E | -0.707 ± 0.046
59 | I42K | -0.747 ± 0.073
60 | I42M | 0.004 ± 0.038
61 | I42R | -1 ± 0.053
62 | I42L | -0.013 ± 0.031
63 | I42P | -0.819 ± 0.11
64 | I42F | -0.242 ± 0.086
65 | I42C | -0.253 ± 0.049
66 | I42Q | -0.564 ± 0.06
67 | V39W | -0.33 ± 0.038
68 | V39K | -0.898 ± 0.079
69 | V39C | -0.025 ± 0.046
70 | V39P | -0.642 ± 0.055
71 | V39I | -0.212 ± 0.067
72 | V39M | -0.249 ± 0.039

Row | Variant | abundance fitness
73 | V39E | -0.456 ± 0.035
74 | V39F | -0.165 ± 0.093
75 | V39H | -0.844 ± 0.12
76 | V39N | -0.697 ± 0.14
77 | V39R | -0.915 ± 0.043
78 | V39S | -0.316 ± 0.037
79 | V39A | -0.177 ± 0.028
80 | V39T | 0.086 ± 0.033
81 | V39L | -0.101 ± 0.031
82 | V39D | -0.732 ± 0.078
83 | V39Q | -0.676 ± 0.062
84 | V39G | -0.725 ± 0.033
85 | V39Y | -0.574 ± 0.11
86 | S40M | -0.051 ± 0.038
87 | S40Q | 0.017 ± 0.038
88 | S40P | -0.258 ± 0.048
89 | S40E | 0.13 ± 0.028
90 | S40A | 0.057 ± 0.026
91 | S40D | 0.078 ± 0.039
92 | S40C | -0.063 ± 0.041
93 | S40Y | -0.102 ± 0.058
94 | S40W | -0.131 ± 0.031
95 | S40T | 0.055 ± 0.036
96 | S40F | -0.162 ± 0.082

Row | Variant | abundance fitness
97 | S40H | 0.123 ± 0.052
98 | S40L | -0.101 ± 0.031
99 | S40I | -0.117 ± 0.081
100 | S40G | -0.06 ± 0.021
101 | S40N | -0.018 ± 0.052
102 | S40K | 0.032 ± 0.036
103 | E41C | -0.219 ± 0.045
104 | E41L | -0.345 ± 0.037
105 | E41M | -0.377 ± 0.048
106 | E41K | -0.727 ± 0.074
107 | E41W | -0.522 ± 0.041
108 | E41R | -0.851 ± 0.047
109 | E41Q | -0.204 ± 0.04
110 | E41N | -0.206 ± 0.059
111 | E41H | -0.353 ± 0.1
112 | E41Y | -0.412 ± 0.083
113 | E41S | -0.265 ± 0.034
114 | E41G | -0.293 ± 0.025
115 | E41V | -0.433 ± 0.034
116 | E41F | -0.758 ± 0.14
117 | E41T | -0.243 ± 0.039
118 | E41I | -0.477 ± 0.1
119 | E41A | -0.13 ± 0.029
120 | E41D | -0.061 ± 0.047

Row | Variant | abundance fitness
121 | P46F | -0.725 ± 0.12
122 | P46L | -0.356 ± 0.037
123 | P46R | -0.925 ± 0.046
124 | P46W | -0.356 ± 0.036
125 | P46D | -0.854 ± 0.095
126 | P46H | -0.746 ± 0.12
127 | P46Y | -0.594 ± 0.081
128 | P46G | -0.77 ± 0.034
129 | P46Q | -0.482 ± 0.051
130 | P46I | -0.26 ± 0.058
131 | P46N | -0.685 ± 0.092
132 | P46A | -0.346 ± 0.03
133 | P46V | -0.37 ± 0.028
134 | P46M | -0.459 ± 0.053
135 | P46S | -0.652 ± 0.046
136 | P46E | -0.779 ± 0.061
137 | P46K | -0.938 ± 0.12
138 | L43N | -1 ± 0.16
139 | L43Y | -0.699 ± 0.13
140 | L43R | -1 ± 0.048
141 | L43P | -0.926 ± 0.073
142 | L43V | -0.769 ± 0.043
143 | L43W | -0.743 ± 0.057
144 | L43H | -1.04 ± 0.19

Row | Variant | abundance fitness
145 | L43Q | -0.807 ± 0.069
146 | L43S | -0.865 ± 0.065
147 | L43C | -0.843 ± 0.1
148 | L43K | -1.03 ± 0.078
149 | L43F | -0.146 ± 0.07
150 | L43G | -0.929 ± 0.043
151 | L43T | -0.922 ± 0.1
152 | L43A | -0.772 ± 0.043
153 | L43D | -0.68 ± 0.1
154 | L43M | -0.235 ± 0.038
155 | L43E | -0.89 ± 0.062
156 | L43I | -0.534 ± 0.1
157 | S38P | -0.079 ± 0.032
158 | S38R | -0.711 ± 0.038
159 | S38T | -0.005 ± 0.031
160 | S38Y | -0.112 ± 0.054
161 | S38N | -0.027 ± 0.049
162 | S38V | 0.097 ± 0.026
163 | S38Q | 0.113 ± 0.034
164 | S38M | 0.11 ± 0.034
165 | S38K | 0.061 ± 0.03
166 | S38W | -0.273 ± 0.035
167 | S38L | -0.005 ± 0.029
